Test results reported in patent publication US8816053B2 (ZymoGenetics, Inc., priority 2004, dated 2014).

T1: zcyto20 (Homo sapiens, UniProt Q8IZJ0)
T1 sequence (Q8IZJ0 26-200): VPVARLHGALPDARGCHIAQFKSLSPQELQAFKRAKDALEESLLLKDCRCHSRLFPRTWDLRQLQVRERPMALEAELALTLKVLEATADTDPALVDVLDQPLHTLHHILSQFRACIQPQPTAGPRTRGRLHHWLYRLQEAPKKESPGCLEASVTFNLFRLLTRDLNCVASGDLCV


How the values were obtained:
zcyto20 = biological target: T1, zcyto20; experiment: Inhibition of ligand-induced ISRE signaling by soluble receptors, 293 HEK cells overexpressing zcytor19, ligand zcyto20; format: cell-based; settings: all three ligands together; soluble receptor 10 micrograms/ml
Description: A signal transduction reporter assay can be used to show the inhibitor properties of zcytor19-Fc4 homodimeric and zcytor19-Fc/CRF2-4-Fc heterodimeric soluble receptors on zcyto20, zcyto21 and zcyto24 signaling. Human embryonal kidney (HEK) cells overexpressing the zcytor19 receptor are transfected with a reporter plasmid containing an interferon-stimulated response element (ISRE) driving transcription of a luciferase reporter gene. Luciferase activity following stimulation of transfected cells with ligands (including zcyto20 (SEQ ID NO:18), zcyto21 (SEQ ID NO:20), zcyto24 (SEQ ID NO:8)) reflects the interaction of the ligand with soluble receptor.
The results obtained are shown as the percent inhibition of ligand-induced signaling in the presence of soluble receptor relative to the signaling in the presence of PBS alone.

[1] = tested on: mouse OAS, Pkr and Mx1 in AML-12 cells; experiment: ISG induction in the mouse liver cell line AML-12 (real-time PCR); format: cell-based; settings: AML-12, 20 ng/ml, 48 hour time point
adenoviral vector, AdGFP = experiment: Adenoviral vector (AdGFP) liver pathology model in C57Bl/6 mice; settings: 50 μg i.p., 7 doses; H&E
Mouse B cells = experiment: 3H-thymidine incorporation by mouse B cells; format: cell-based
Experimental: Mouse B cells were isolated from 2 Balb/C spleens (7 months old) by depleting CD43+ cells using MACS magnetic beads. Purified B cells were cultured in vitro with LPS, anti-IgM or anti-CD40 monoclonal antibodies. Mouse IL-28 or mouse IFNα was added to the cultures and ^3H-thymidine was added at 48 hrs. and ^3H-thymidine incorporation was measured after 72 hrs. culture.

mouse OAS, Pkr and Mx1 = experiment: ISG gene induction in liver, spleen and blood of C57BL/6 mice injected with protein (real-time PCR); format: in vivo; settings: i.p. or i.v., 10 μg-250 μg, 1 hr-48 hr
Experimental: Mice were sacrificed at various time points (1 hr-48 hr). Spleens and livers were isolated from mice, and RNA was isolated. RNA was also isolated from the blood cells. The cells were pelleted and RNA isolated from pellets using RNAEasy®-kit (Qiagen). RNA was treated with DNase (Amicon) to rid RNA of any contaminating DNA. cDNA was generated using Perkin-Elmer RT mix (Perkin-Elmer). ISG gene induction was measured by real-time PCR using primers and probes specific for mouse OAS, Pkr and Mx1. To obtain quantitative data, HPRT real-time PCR was duplexed with ISG PCR. A standard curve was calculated using known amounts of IFN-stimulated mouse PBLs. All data are shown as expression relative to internal HPRT expression.
Results shown are fold expression relative to HPRT gene expression. […] The data shown is the average expression from 5 different animals/group.
Mice were injected with 100 μg of proteins i.v. Data shown is fold expression over HPRT expression from livers of mice. Similar data was obtained from blood and spleens of mice.

OAS activity = OAS activity in serum and plasma of treated mice (OAS radioimmunoassay); format: in vivo, mouse; settings: i.v., 10 μg-250 μg
Experimental: Serum and plasma were isolated from mice at varying time points, and OAS activity was measured using the OAS radioimmunoassay (RIA) kit from Eiken Chemicals (Tokyo, Japan).

Molecule | inhibition of zcyto20, zcyto21 and zcyto24-induced signaling (zcyto20) | liver and inflammation scores (liver histology) versus the PBS-treated group (adenoviral vector, AdGFP) | ISG gene expression (OAS, Pkr, Mx1) in the livers, spleen and blood of mice (mouse OAS, Pkr and Mx1) | further results
HuCRF2-4-Fc: human CRF2-4-Fc homodimeric soluble receptor | No significant effects | – | – | –
Zcyto24: mouse IL-28 (zcyto24), SEQ ID NO:8 (protein, listed as Mus musculus) MKPETAGGHMLLLLLPLLLAAVLTRTQADPVPRATRLPVEAKDCHIAQFKSLSPKELQAFKKAKDAIEKRLLEKDLRCSSHLFPRAWDLKQLQVQERPKALQAEVALTLKVWENMTDSALATILGQPLHTLSHIHSQLQTCTQLQATAEPRSPSRRLSRWLHRLQEAQSKETPGCLEASVTSNLFRLLTRDLKCVANGDQCV | – | lower | – | Mx1 (expression relative to HPRT) [1]: 0.08; OAS (expression relative to HPRT) [1]: 0.04; PkR (expression relative to HPRT) [1]: 0.02; 3H-thymidine incorporation (Mouse B cells; B cells stimulated with LPS or anti-IgM, IFNα 10 ng/ml, mouse IL-28 any concentration including 1000 ng/ml, 72 hrs): did not inhibit; 3H thymidine incorporation (Mouse B cells; B cells stimulated with anti-CD40 MAb): increased
IL-28A: human IL-28A cytokine polypeptide, previous designation zcyto20 (e.g. SEQ ID NO:18, CHO-derived) (protein, listed as Homo sapiens, SIGNAL (1)...(25)) MKLDMTGDCTPVLVLMAAVLTVTGAVPVARLHGALPDARGCHIAQFKSLSPQELQAFKRAKDALEESLLLKDCRCHSRLFPRTWDLRQLQVRERPMALEAELALTLKVLEATADTDPALVDVLDQPLHTLHHILSQFRACIQPQPTAGPRTRGRLHHWLYRLQEAPKKESPGCLEASVTFNLFRLLTRDLNCVASGDLCV | – | – | did not induce | –
IL-29: human IL-29 cytokine polypeptide, previous designation zcyto21 (e.g. SEQ ID NO:20, CHO-derived) (protein, listed as Homo sapiens, SIGNAL (1)...(19)) MAAAWTVVLVTLVLGLAVAGPVPTSKPTTTGKGCHIGRFKSLSPQELASFKKARDALEESLKLKNWSCSSPVFPGNWDLRLLQVRERPVALEAELALTLKVLEAAAGPALEDVLDQPLHTLHHILSQLQACIQPQPTAGPRPRGRLHHWLHRLQEAPKKESAGCLEASVTFNLFRLLTRDLKYVADGNLCLRTSTHPEST | – | lower | induced | OAS activity in the serum and plasma of mice (OAS activity): induced
Muzcytor19-Ig: murine zcytor19-Ig homodimeric soluble receptor (protein, left off: a dimerising Fc or GST, murine zcytor19-Ig homodimeric soluble receptor) RPRLAPPRNVTLFSQNFTVYLTWLPGLGSPPNVTYFVTYQSYIKTGWRPVEHCAGIKALVCPLMCLKKLNLYSKFKGRVQAASAHGRSPRVESRYLEYLFDVELAPPTLVLTQMEKILRVNATYQLPPCMPSLELKYQVEFWKEGLGSKTLFPDTPYGQPVQIPLQQGASRRHCLSARTVYTLIDIKYSQFSEPSCIFLEAPGDKRA | No significant effects | – | – | –
